Like-named read-outs stand apart in the source and are kept apart here.
Tests used:
[1] = target: T1, C57BL/6 mouse SIRPα ECD recombinant protein (6×His tagged) (C57BL/6 mouse) (UniProt P97797); assay: ELISA, C57BL/6 mouse SIRPα ECD
T1 sequence (looked up): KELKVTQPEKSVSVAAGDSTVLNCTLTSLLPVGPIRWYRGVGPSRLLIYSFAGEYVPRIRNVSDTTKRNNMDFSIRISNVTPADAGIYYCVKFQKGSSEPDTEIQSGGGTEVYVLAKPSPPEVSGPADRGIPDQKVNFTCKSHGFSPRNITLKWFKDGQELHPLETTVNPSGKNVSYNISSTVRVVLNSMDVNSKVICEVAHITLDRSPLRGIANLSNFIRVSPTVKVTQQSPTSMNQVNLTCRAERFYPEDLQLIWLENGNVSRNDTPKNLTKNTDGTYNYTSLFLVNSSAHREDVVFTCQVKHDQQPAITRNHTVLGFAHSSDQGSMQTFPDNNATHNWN

[2] = target: human SIRPα v2 expressed on cells (CHOK1 stable line KYinno KC-1720) (human) (UniProt P78324); assay: competitive FACS, mFc-CD47 ECD on CHOK1-human SIRPα v2 cells
[3] = target: human SIRPα v2 expressed on cells (CHOK1 stable line KYinno KC-1720) (human) (UniProt P78324); assay: FACS, CHOK1-hSIRPα v2 cells
[4] = target: cyno SIRPα stably expressed on CHOK1 cells (cyno); assay: FACS, CHOK1-Cyno SIRPα cells
[5] = target: Human SIRPα v2 (antigen of the Octet and Biacore affinity measurements) (human) (UniProt P78324); assay: SPR (Biacore), 1:1 binding model
[6] = target: Human SIRPα v2 (antigen of the Octet and Biacore affinity measurements) (human) (UniProt P78324); assay: BLI (Octet), 1:1 binding model
[7] = target: human SIRPα v2 expressed on cells (CHOK1 stable line KYinno KC-1720) (human) (UniProt P78324); assay: FACS, CHOK1 cells stably expressing human SIRPα v2
[8] = target: human SIRPα v2 expressed on cells (CHOK1 stable line KYinno KC-1720) (human) (UniProt P78324); assay: FACS, CHOK1-hSIRPα v2 cells; remark: listed apart in the source

B1: hu1H9G4 (antibody, V domains shown)
VH: QVQLVQSGAEVKKPGASVKVSCKASGYTFTSYWITWVKQAPGQGLEWIGDIYPGSGSTNHIEKFKSKATLTVDTSISTAYMELSRLRSDDTAVYYCATGYGSSYGYFDYWGQGTLVTVSS
VL: DIQMTQSPSSLSASVGDRVTITCRASENIYSYLAWYQQKPGKAPKLLIYTAKTLAEGVPSRFSGSGSGTDFTLTISSLQPEDFATYYCQHQYGPPFTFGQGTKLELK
OD450 at 100 nM [1]: 0.23 OD450
IC50 [2]: 5.61 nM
TOP blocking (%) [2]: 98.7%
EC50 [3]: 0.85 nM
TOP MFI [3]: 18700 MFI
EC50 [4]: 0.72 nM
TOP MFI [4]: 14900 MFI

B2: 025c (antibody, V domains shown)
VH: EVQLQQSGAELVKPGASVKLSCTASGFNIKDYYMHWVKQRTEQGLEWIGRIDPEDGETKYAPKFQGKATITADTSSNTAYLQLSSLTSEDTAVYYCDRGLAYWGQGTLVTVSA
VL: QIVLTQSPAIMSASPGEKVTLTCSASSSVSSSYLYWYQQKPGSSPKLWIYSTSNLASGVPARFSGSGSGTSYSLTISSMEAEDAASYFCHQWSSYPYTFGGGTKLEIK
IC50 [2]: 0.63 nM
TOP blocking (%) [2]: 99.7%
Kd [5]: 1.69 nM
koff [5]: 0.00254 s⁻¹
kon [5]: 1.51e+06 M⁻¹ s⁻¹
Kd [6]: 2.67 nM
koff [6]: 0.00293 s⁻¹
kon [6]: 1.1e+06 M⁻¹ s⁻¹
EC50 (read off the curve) [7]: 1 nM
EC50 [8]: 0.99 nM
TOP MFI [8]: 53000 MFI
EC50 [3]: 1.34 nM
TOP MFI [3]: 51600 MFI
EC50 [4]: 0.69 nM
TOP MFI [4]: 30800 MFI
